The results in this text go back to PMC3702670 (Nature structural & molecular biology, 2013).

For data set [1], the target named is T1, GR DBD WT (rat, UniProt P06536 440-525). The data set is described as follows: NMR.
Data set [2] has as its target T1, GR DBD WT. Description: NMR. This is another data set of the same source.
The target in data set [3] is T1, GR DBD WT. Description: SPR. In general terms: In SPR one partner is held on a chip, and binding of the other changes the refractive index at the surface.
In data set [4] the target is T1, GR DBD WT. The data set is described as follows: NMR. The source holds these as a separate data set.
The target in data set [5] is T2, GR DBD A477T (rat, UniProt P06536 440-525, A477T). The data set is described as follows: NMR.
Data set [6] addresses T2, GR DBD A477T. The data set is described as follows: NMR. This is another data set of the same source.
Data set [7] deals with the molecule itself. Description: […].
Data set [8] deals with the molecule itself. Description: SPR.

Read-outs that look alike come from different tables or passages of the source.

B1: Sgk-ggg GBS (dsDNA)
DNA 1: GTACAGAACAGGGTGTCCGTCGAC
DNA 2: GTCGACGGACACCCTGTTCTGTAC
Take B1: the binding result in data set [1] is reported as “binds”.

B2: Gilz GBS (dsDNA)
DNA 1: GTACAGAACATTGGGTTCCTCGAC
DNA 2: GTCGAGGAACCCAATGTTCTGTAC
Turning to B2, the binding result in data set [2] is given as “binds”.

B3: Pal-R GBS (dsDNA)
DNA 1: GTACAGAACATTTTGTTCTTCGAC
DNA 2: GTCGAAGAACAAAATGTTCTGTAC
Turning to B3, the binding result in data set [3] is listed as “binds”.

B4: Pal-ttg GBS (dsDNA)
DNA 1: GTACAGAACATTGTGTTCTTCGAC
DNA 2: GTCGAAGAACACAATGTTCTGTAC
With B4, the binding result in data set [2] is given as “binds”.

B5: Gha GBS (dsDNA)
DNA 1: GTACGGAACATAATGTTCCTCGAC
DNA 2: GTCGAGGAACATTATGTTCCGTAC
As to B5, the binding result in data set [4] and in data set [5] was “binds” throughout.

B6: Fkbp5 GBS (dsDNA)
DNA 1: GTACAGAACAGGGTGTTCTTCGAC
DNA 2: GTCGAAGAACACCCTGTTCTGTAC
Regarding B6, the binding result in data set [1] and in data set [6] was “binds” in each case.

B7: rat glucocorticoid receptor DNA binding domain, wild type (domain or fragment)
chain: CLVCSDEASGCHYGVLTCGSCKVFFKRAVEGQHNYLCAGRNDCIIDKIRRKNCPACRYRKCLQAGMNLEARKTKKKIKGIQQATAG
For the molecule B7, in data set [7], the binding result is listed as “binds”.

B8: rat glucocorticoid receptor DNA binding domain, [change] mutant (domain or fragment)
chain: CLVCSDEASGCHYGVLTCGSCKVFFKRAVEGQHNYLCTGRNDCIIDKIRRKNCPACRYRKCLQAGMNLEARKTKKKIKGIQQATAG
As to B8, the binding result in data set [8] is listed as “binds”.

B9: Sgk GBS (dsDNA)
DNA 1: GTACAGAACATTTTGTCCGTCGAC
DNA 2: GTCGACGGACAAAATGTTCTGTAC
B9: the binding result in data set [5] and in data set [1] was “binds” in each case.
